Experimental data published in patent US20250197451A1 (CAPITAL MEDICAL UNIVERSITY SCHOOL OF STOMATOLOGY, published 2025).

B1: peptide 83 (peptide)
peptide: EEEACDQQPQEEEEK
B2: peptide 84 (peptide)
peptide: DQQPQEEEEKDEEGE
B3: peptide 210 (peptide)
peptide: PPISPPPDSLPLDDG
B4: peptide 32 (peptide)
peptide: FVRYYETPEAQRDKL
B5: peptide 73 (peptide)
peptide: EMCWYVLERYVYCVT
B6: peptide 208 (peptide)
peptide: IQMERHVIRPPPISP
B7: peptide 91 (peptide)
peptide: SEDQEALGKKPKAPA
B8: peptide 89 (peptide)
peptide: DGSTSPTSTPSEDQE
B9: peptide 227 (peptide)
peptide: LSWTNISKKQLSWLI
B10: peptide 209 (peptide)
peptide: HVIRPPPISPPPDSL
B11: peptide 228 (peptide)
peptide: ISKKQLSWLINRLPG
B12: peptide 33 (peptide)
peptide: ETPEAQRDKLYNVIS
B13: peptide 262 (peptide)
peptide: VTKEGCEQFIAEMSV
B14: peptide 225 (peptide)
peptide: IIRRQPVSLDLSWTN
B15: peptide 246 (peptide)
peptide: TDASLRLIIRHMPLL
B16: peptide 258 (peptide)
peptide: LSFFKRCGNICHIDL
B17: peptide 90 (peptide)
peptide: PTSTPSEDQEALGKK
B18: peptide 50 (peptide)
peptide: GGTSVWYHVFRGGKI
B19: peptide 184 (peptide)
peptide: TAGPSTEGAEGPEEK
B20: peptide 92 (peptide)
peptide: ALGKKPKAPALRFLK
B21: peptide 2 (peptide)
peptide: MGGSAEDHPPRKRHA
B22: peptide 219 (peptide)
peptide: TWNRWCCDKRLWTRI
B23: peptide 70 (peptide)
peptide: DRTRVQPKFRYPFYY
B24: peptide 8 (peptide)
peptide: EFESATQRPIDRQRY
B25: peptide 229 (peptide)
peptide: LSWLINRLPGLRDLV
B26: peptide 257 (peptide)
peptide: VTDQCLSFFKRCGNI
B27: peptide 201 (peptide)
peptide: LNGTPRELRHQLGPS
B28: peptide 202 (peptide)
peptide: RELRHQLGPSLRSPP
B29: peptide 54 (peptide)
peptide: PTLHNLALYEEWVLS
B30: peptide 44 (peptide)
peptide: NAIAEMKYPKVKKYC
B31: peptide 198 (peptide)
peptide: RPPGICERPHRFSKG
B32: peptide 223 (peptide)
peptide: KSITPLMLSGIIRRQ
B33: peptide 263 (peptide)
peptide: CEQFIAEMSVSVQFG
B34: peptide 241 (peptide)
peptide: NRPGQMDNRSKLRNI
B35: peptide 183 (peptide)
peptide: RSSSPTAGPSTEGAE
B36: peptide 77 (peptide)
peptide: TQEYQRESMLIDAPR
B37: peptide 96 (peptide)
peptide: ESEESVKSTTLAVDY
B38: peptide 266 (peptide)
peptide: VQFGQVEEKLLQKLS
B39: peptide 205 (peptide)
peptide: RVISRPPPSVSPPKC
B40: peptide 99 (peptide)
peptide: PKTPTGSPATEVSAK
B41: peptide 65 (peptide)
peptide: DSLVFGGNILHSFNV
B42: peptide 149 (peptide)
peptide: SNLPGSLLKEQKMNR
B43: peptide 154 (peptide)
peptide: RRSECEEAPRRRSDE
B44: peptide 135 (peptide)
peptide: EDTVEEEEGKFNLML
B45: peptide 150 (peptide)
peptide: SLLKEQKMNRDNKEG
B46: peptide 160 (peptide)
peptide: DDVHLRKKRKYEKPQ
B47: peptide 64 (peptide)
peptide: VYTPVDSLVFGGNIL

These binders were tested against T1, biotin-labelled EZH2 protein (UniProt Q15910 1-746, limits assumed, biotin label (EZ-link NHS-PEO4-Biotinylation kit)) (assay: KDM2B peptide array probed with biotin-EZH2 1 ug/ml, SA-HRP/ECL;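 on Intensity (%): Background-corrected optical density of each spot on the membrane, given as percent of the brightest spot (100%), color developed for 5 minutes; 100% is the highest background-corrected spot optical density on the membrane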).
T1 construct: Probe in solution (1 ug/ml) on the KDM2B peptide microarray; also called NHS-PEO4-Biotinylation-labelled EZH2 protein; recombinant protein
T1 sequence (Q15910 whole entry): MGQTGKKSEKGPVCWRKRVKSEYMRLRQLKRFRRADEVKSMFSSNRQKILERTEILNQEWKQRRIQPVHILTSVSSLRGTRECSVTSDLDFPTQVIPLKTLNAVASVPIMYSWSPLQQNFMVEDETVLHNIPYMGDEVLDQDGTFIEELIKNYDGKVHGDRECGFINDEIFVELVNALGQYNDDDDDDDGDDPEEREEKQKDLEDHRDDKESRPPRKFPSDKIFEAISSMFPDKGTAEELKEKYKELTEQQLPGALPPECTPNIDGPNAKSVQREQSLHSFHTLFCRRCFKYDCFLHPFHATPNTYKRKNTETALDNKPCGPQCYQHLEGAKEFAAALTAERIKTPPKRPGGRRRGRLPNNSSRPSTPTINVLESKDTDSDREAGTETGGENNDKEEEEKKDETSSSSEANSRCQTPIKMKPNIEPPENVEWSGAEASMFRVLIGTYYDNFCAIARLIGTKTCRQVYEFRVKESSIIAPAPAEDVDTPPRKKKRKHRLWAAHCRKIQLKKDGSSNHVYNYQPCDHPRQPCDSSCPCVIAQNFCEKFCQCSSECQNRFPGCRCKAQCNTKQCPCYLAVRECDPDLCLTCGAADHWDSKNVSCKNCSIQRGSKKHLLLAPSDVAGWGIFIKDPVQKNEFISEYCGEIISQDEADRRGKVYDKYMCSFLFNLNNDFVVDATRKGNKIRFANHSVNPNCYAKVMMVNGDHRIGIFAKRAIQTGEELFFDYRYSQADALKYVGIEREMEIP
Procedure: (§1) After blocking, the polypeptide microarray was incubated with biotin-labeled target protein for hybridization, visualized with the chemical chromogenic substrate and imaged using a Chempchemi digital imager. The image of colored polypeptide microarray was analyzed for the optical density of the colored points. Particularly, the optical density of each colored point was calculated using the optical density of the respective surrounding background as a reference for background correction. The highest optical density value of the colored point on membrane was set to 100%, and the optical density value of the remaining colored points was converted into percentages relative to the highest value. The points with an optical density percentage of more than 30% on the polypeptide membrane and also with an optical density percentage of less than 30% on the negative membrane were defined as positive colored points.
(§2) For the hybridization experiment, a solution of NHS-PEO4-Biotinylation-labelled EZH2 protein (1 μg/ml) was used for the hybridization of the polypeptide microarray. Streptavidin-HRP was used to amplify the reaction signal according to the experimental procedure and conditions described above, and the time of color development was 5 minutes.

B1: no binding.
B2: no binding.

Target: T1, biotin-labelled EZH2 protein
Assay: as above
Remark: another data set of the same source

B1 and B2 are the same in “Intensity (%)” value: 0% for the first, 0% for the second.

What follows are binders tested against T1, biotin-labelled EZH2 protein (assay: KDM2B peptide array probed with biotin-EZH2 1 ug/ml, SA-HRP/ECL; Remark: noise).
Procedure: as §1, §2

B3 and B4 are the same in “Intensity (%)” value: 0% for the first, 0% for the second.

Compared with B5, B6 is lower in “Intensity (%)” value: 0.19% for the first, 0% for the second.

B7 and B8 are the same in “Intensity (%)” value: 0% for the first, 0% for the second.

Compared with B9, B10 is higher in “Intensity (%)” value: 0% for the first, 0.32% for the second.

B11 and B12 are the same in “Intensity (%)” value: 0% for the first, 0% for the second.

B13 and B14 are the same in “Intensity (%)” value: 0% for the first, 0% for the second.

Compared with B15, B16 is higher in “Intensity (%)” value: 0% for the first, 0.72% for the second.

Going from B17 to B18, the “Intensity (%)” value falls from 0.19% to 0%.

B19 and B20 are the same in “Intensity (%)” value: 0% for the first, 0% for the second.

Compared with B21, B22 is higher in “Intensity (%)” value: 0% for the first, 0.56% for the second.

Compared with B23, B24 is lower in “Intensity (%)” value: 0.02% for the first, 0% for the second.

Going from B25 to B26, the “Intensity (%)” value rises from 0% to 0.23%.

First: B27
Second: B28
The “Intensity (%)” value of the first is lower: 0.18% for the first, 0.64% for the second.

B29 and B30 are the same in “Intensity (%)” value: 0% for the first, 0% for the second.

B31 and B32 are the same in “Intensity (%)” value: 0% for the first, 0% for the second.

Going from B33 to B34, the “Intensity (%)” value falls from 0.05% to 0%.

B35 and B36 are the same in “Intensity (%)” value: 0% for the first, 0% for the second.

B37 and B38 are the same in “Intensity (%)” value: 0% for the first, 0% for the second.

Compared with B39, B40 is lower in “Intensity (%)” value: 0.39% for the first, 0% for the second.

The binders below were run against T1, biotin-labelled EZH2 protein (assay: KDM2B peptide array probed with biotin-EZH2 1 ug/ml, SA-HRP/ECL; Remark: spike).
Procedure: as §1, §2

B41 and B42 are the same in “Intensity (%)” value: 0% for the first, 0% for the second.

B43 and B44 are the same in “Intensity (%)” value: 0% for the first, 0% for the second.

B45 and B46 are the same in “Intensity (%)” value: 0% for the first, 0% for the second.

B47 was tested, and the “Intensity (%)” value was 0%.
